From patent publication US20060110796A1 come the findings set out here.

The target of assay [1] is glycomyoglobin with β-GlcNAc-serine at position 4 (Gly4TAG mutant myoglobin, C-terminal His6 tag) (UniProt P02185). Nature of the assay: ELISA-like lectin binding assay; 200 ng myoglobin immobilized, biotinylated BSII, streptavidin-alkaline phosphatase, pNPP, A405. In general terms: In an ELISA, binding on a coated surface is turned into a signal by an enzyme label.
Assay [2] deals with glycomyoglobin with GalNAc-α-threonine at position 4 (myoglobin 4TAG mutant, C-terminal 6xHis tag) (UniProt P02185). Nature of the assay: enzyme-linked lectin-binding assay (ELLA); 600 ng myoglobin on plate, biotinylated lectin 10 µg/mL, streptavidin-AP, pNPP, 405 nm; reference is an equivalent concentration of tyrosine-myoglobin.
Chain of glycomyoglobin with GalNAc-α-threonine at position 4 (myoglobin 4TAG mutant, C-terminal 6xHis tag) (P02185 other isoform, or with tags, fused parts or gaps mutant): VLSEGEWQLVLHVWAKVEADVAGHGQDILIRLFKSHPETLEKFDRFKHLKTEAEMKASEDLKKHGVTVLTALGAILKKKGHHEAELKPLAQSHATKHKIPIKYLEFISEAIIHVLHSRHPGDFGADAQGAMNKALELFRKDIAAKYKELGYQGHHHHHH

Chain of Vicia Villosa lectin (VVL), biotinylated conjugate (P56625 whole entry): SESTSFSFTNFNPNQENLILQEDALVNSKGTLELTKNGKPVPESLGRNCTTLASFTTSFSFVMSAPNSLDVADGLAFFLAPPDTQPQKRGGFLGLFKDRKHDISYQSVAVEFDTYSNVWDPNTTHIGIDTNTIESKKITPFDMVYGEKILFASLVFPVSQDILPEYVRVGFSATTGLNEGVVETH
Chain of glycomyoglobin with β-GlcNAc-serine at position 4 (Gly4TAG mutant myoglobin, C-terminal His6 tag) (P02185 other isoform, or with tags, fused parts or gaps mutant): as the sequence (P02185 other isoform, or with tags, fused parts or gaps mutant) above

“Bandeiraea simplicifolia II (BSII) lectin, biotinylated” displayed a fold signal over wild-type myoglobin in assay [1] of more than 200 fold.
On to “Dolichos Biflorus lectin (DBL), biotinylated conjugate (from UniProt P05045 23-275)”, for which, in assay [2], the fold signal increase for glycomyoglobin versus tyrosine-myoglobin was 5 fold.
On to “Vicia Villosa lectin (VVL), biotinylated conjugate (from UniProt P56625 1-185)”, for which, in assay [2], the fold signal increase for glycomyoglobin versus tyrosine-myoglobin was determined as 10 fold.
